Measurements: US20100015637A1 (AbbVie / Abbott, published 2010)
One block for each molecule: values may come before it.

Key:
[1] = biological target: human PlGF-1 comprising amino acids 1-137 produced in human embryonic kidney cells (human) (UniProt P49763); assay: … sandwich, capture MAb264, detection pAb264; antigen 1500 pg/mL
[2] = biological target: human PlGF-1 fragment (comprising amino acids 17-131) produced in human embryonic kidney cells (human) (UniProt P49763); assay: as above
[3] = biological target: CHO human PlGF-1 comprising amino acids 1-137 (human PlGF-1-His (1-131), CHO 6305) (human) (UniProt P49763); assay: as above
[4] = biological target: CHO human PlGF-1 fragment (comprising amino acids 17-131; ATCC PTA-8540) (human) (UniProt P49763); assay: as above
[5] = biological target: recombinant human PlGF-1 (comprising amino acids 1-131) expressed in E. coli (R&D Systems) (human) (UniProt P49763); assay: as above
[6] = biological target: human PlGF-1 comprising amino acids 1-137 produced in human embryonic kidney cells (human) (UniProt P49763); assay: … sandwich, capture MAb264, detection pAb264; antigen 250 pg/mL
[7] = biological target: human PlGF-1 fragment (comprising amino acids 17-131) produced in human embryonic kidney cells (human) (UniProt P49763); assay: as above
[8] = biological target: CHO human PlGF-1 comprising amino acids 1-137 (human PlGF-1-His (1-131), CHO 6305) (human) (UniProt P49763); assay: as above
[9] = biological target: CHO human PlGF-1 fragment (comprising amino acids 17-131; ATCC PTA-8540) (human) (UniProt P49763); assay: as above
[10] = biological target: recombinant human PlGF-1 (comprising amino acids 1-131) expressed in E. coli (R&D Systems) (human) (UniProt P49763); assay: as above
[11] = biological target: human PlGF-1 comprising amino acids 1-137 produced in human embryonic kidney cells (human) (UniProt P49763); assay: … sandwich, capture MAb264, detection pAb264; antigen 60 pg/mL
[12] = biological target: human PlGF-1 fragment (comprising amino acids 17-131) produced in human embryonic kidney cells (human) (UniProt P49763); assay: as above
[13] = biological target: CHO human PlGF-1 comprising amino acids 1-137 (human PlGF-1-His (1-131), CHO 6305) (human) (UniProt P49763); assay: as above
[14] = biological target: CHO human PlGF-1 fragment (comprising amino acids 17-131; ATCC PTA-8540) (human) (UniProt P49763); assay: as above
[15] = biological target: recombinant human PlGF-1 (comprising amino acids 1-131) expressed in E. coli (R&D Systems) (human) (UniProt P49763); assay: as above
[16] = biological target: human PlGF-1 comprising amino acids 1-137 produced in human embryonic kidney cells (human) (UniProt P49763); assay: … sandwich, capture MAb264, detection pAb264; antigen 750 pg/mL
[17] = biological target: human PlGF-1 fragment (comprising amino acids 17-131) produced in human embryonic kidney cells (human) (UniProt P49763); assay: as above
[18] = biological target: CHO human PlGF-1 comprising amino acids 1-137 (human PlGF-1-His (1-131), CHO 6305) (human) (UniProt P49763); assay: as above
[19] = biological target: CHO human PlGF-1 fragment (comprising amino acids 17-131; ATCC PTA-8540) (human) (UniProt P49763); assay: as above
[20] = biological target: recombinant human PlGF-1 (comprising amino acids 1-131) expressed in E. coli (R&D Systems) (human) (UniProt P49763); assay: as above
[21] = biological target: human PlGF-1 comprising amino acids 1-137 produced in human embryonic kidney cells (human) (UniProt P49763); assay: … sandwich, capture MAb264, detection pAb264; antigen 0 pg/mL (blank)
[22] = biological target: human PlGF-1 fragment (comprising amino acids 17-131) produced in human embryonic kidney cells (human) (UniProt P49763); assay: as above
[23] = biological target: CHO human PlGF-1 comprising amino acids 1-137 (human PlGF-1-His (1-131), CHO 6305) (human) (UniProt P49763); assay: as above
[24] = biological target: CHO human PlGF-1 fragment (comprising amino acids 17-131; ATCC PTA-8540) (human) (UniProt P49763); assay: as above
[25] = biological target: recombinant human PlGF-1 (comprising amino acids 1-131) expressed in E. coli (R&D Systems) (human) (UniProt P49763); assay: as above
[26] = biological target: human PlGF-1 comprising amino acids 1-137 produced in human embryonic kidney cells (human) (UniProt P49763); assay: … sandwich, capture MAb264, detection pAb264; antigen 15 pg/mL
[27] = biological target: human PlGF-1 fragment (comprising amino acids 17-131) produced in human embryonic kidney cells (human) (UniProt P49763); assay: as above
[28] = biological target: CHO human PlGF-1 comprising amino acids 1-137 (human PlGF-1-His (1-131), CHO 6305) (human) (UniProt P49763); assay: as above
[29] = biological target: CHO human PlGF-1 fragment (comprising amino acids 17-131; ATCC PTA-8540) (human) (UniProt P49763); assay: as above
[30] = biological target: recombinant human PlGF-1 (comprising amino acids 1-131) expressed in E. coli (R&D Systems) (human) (UniProt P49763); assay: as above
[31] = biological target: T1, CHO human PlGF-1 comprising amino acids 1-137 (human PlGF-1-His (1-131), CHO 6305) (human, UniProt P49763 19-221, N-glycans at N21 (completely glycosylated) and N89 (partially glycosylated)); assay: sandwich chemiluminescent EIA, 1-255-713 coated, acridinium 2-826-335 Fab'2 detection
T1 construct: Mature human PlGF-1 with 6xHis tag (137 amino acids); also called CHO (1-137)
T1 sequence: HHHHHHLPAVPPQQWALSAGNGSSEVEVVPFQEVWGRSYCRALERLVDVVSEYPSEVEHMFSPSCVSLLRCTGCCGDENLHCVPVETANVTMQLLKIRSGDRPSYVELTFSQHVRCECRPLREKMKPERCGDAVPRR
Method: After the capture reagent had been coated on the solid phase, it was removed and any unoccupied binding sites remaining on the plates were blocked using a 2% Fish Gel solution in PBS. The plates were washed and log 2 serial dilutions of recombinant antigen (rAg) lots, starting at 10,000 pg/mL in research phase […]® Human PlGF-1 calibrator diluent (which comprises a buffer containing MES, other salt, a protein blocker and an antimicrobial; Abbott Laboratories, Abbott Park, Ill.), were added to the plate for a one-hour incubation. Purified human PlGF-1 rAg (R&D Systems Minneapolis, Minn.) that was produced in E. coli was used as a positive control and purified NGAL) rAg was used as a negative control in this assay. […] Luminescence counts per second (LCPS) were measured on a Microbeta Jet instrument (Perkin Elmer, Waltham Mass.). The plate was loaded in the instrument where 100 μl of Architect Pre-trigger Solution (Abbott Laboratories, Abbott Park, Ill.) is added to each well, followed by 100 ul of Architect Trigger Solution is added before flash chemiluminescence is read and recorded. A calibration curve was generated with each rAg and recorded in the following graph.

- RLU [1]: 507000 RLU
- RLU [2]: 403000 RLU
- RLU [3]: 201000 RLU
- RLU [4]: 223000 RLU
- RLU [5]: 937000 RLU
- RLU [6]: 109000 RLU
- RLU [7]: 77900 RLU
- RLU [8]: 38900 RLU
- RLU [9]: 46000 RLU
- RLU [10]: 196000 RLU
- RLU [11]: 31300 RLU
- RLU [12]: 23500 RLU
- RLU [13]: 13800 RLU
- RLU [14]: 14800 RLU
- RLU [15]: 55000 RLU
- RLU [16]: 277000 RLU
- RLU [17]: 206000 RLU
- RLU [18]: 106000 RLU
- RLU [19]: 120000 RLU
- RLU [20]: 352000 RLU
- RLU [21]: 4750 RLU
- RLU [22]: 4880 RLU
- RLU [23]: 4650 RLU
- RLU [24]: 4680 RLU
- RLU [25]: 5110 RLU
- RLU [26]: 10400 RLU
- RLU [27]: 8590 RLU
- RLU [28]: 6370 RLU
- RLU [29]: 6870 RLU
- RLU [30]: 15600 RLU
Molecule: monoclonal antibody 264 (mouse anti-human PlGF-1, Clone 37203, R&D Systems Catalog Number MAB264)

- binding result [31]: binds
B1: acridinium labeled Fab'2 fragment of human PlGF-1 antibody 2-826-335 (other)
VH: QVQLKQSGPGLVQPSQSLSITCTVSGFSLTTYGIHWVRQSPGKGLEWLGVMWSGGDTDYDAAFISRLSISKDNSKSQVFFKMNSLQANDTGIYYCARYRFYGMDYWGQGTSVTVSS
VL: AIQMTQSSSSFSVSLGDRVTITCKASEDIYNRFAWYQQKPGNAPRLLISGAASLEAGVPSRFSGSGSGQDYTLSITSLQTEDVATYYCQQYWSTPWTFGGGTKLEIKR
modifications: acridinium labeled
